Consider six molecules from US20240270846A1 (published 2024).

To fix the notation:
B1: CE115HA000/GLS3000 L33D one-arm antibody (antibody, human IgG1, kappa, L234A L235A, N297A, name in Kabat numbering)
heavy: QVQLVESGGGVVQPGRSLRLSCAASGFTFSNAWMHWVRQAPGKGLEWVAQIKAKSNNYATYYAESVKGRFTISRDDSKNSLYLQMNSLKTEDTAVYYCRYVHYGAYYGVDAWGQGTTVTVSSASTKGPSVFPLAPSSKSTSGGTAALGCLVKDYFPEPVTVSWNSGALTSGVHTFPAVLQSSGLYSLSSVVTVPSSSLGTQTYICNVNHKPSNTKVDKKVEPKSCDKTHTCPPCPAPEAAGGPSVFLFPPKPKDTLMISRTPEVTCVVVDVSHEDPEVKFNWYVDGVEVHNAKTKPREEQYASTYRVVSVLTVLHQDWLNGKEYKCKVSNKALPAPIEKTISKAKGQPREPQVYTLPPSRCELTKNQVSLSCAVKGFYPSDIAVEWESNGQPENNYKTTPPVLDSDGSFFLVSKLTVDKSRWQQGNVFSCSVMHEALHNHYTQKSLSLSPDYKDDDDK
chain: EPKSSDKTHTCPPCPAPELLGGPSVFLFPPKPKDTLMISRTPEVTCVVVDVSHEDPEVKFNWYVDGVEVHNAKTKPREEQYNSTYRVVSVLTVLHQDWLNGKEYKCKVSNKALPAPIEKTISKAKGQPREPQVCTLPPSRDELTKNQVSLWCLVKGFYPSDIAVEWESNGQPENNYKTTPPVLDSDGSFFLYSKLTVDKSRWQQGNVFSCSVMHEALHNRYTQKSLSLSP
light: DIVMTQSPLSLPVTPGEPASISCRSSQSLVHSNRNTYDHWYQQKPGQAPRLLIYKVSNRFSGVPDRFSGSGSGTDFTLKISRVEAEDVGVYYCGQGTQVPYTFGQGTKLEIKRTVAAPSVFIFPPSDEQLKSGTASVVCLLNNFYPREAKVQWKVDNALQSGNSQESVTEQDSKDSTYSLSSTLTLSKADYEKHKVYACEVTHQGLSSPVTKSFNRGEC
notes: one-arm IgG1
B2: CE115HA000/GLS3000 L33M one-arm antibody (antibody, human IgG1, kappa, L234A L235A, N297A, name in Kabat numbering)
heavy: QVQLVESGGGVVQPGRSLRLSCAASGFTFSNAWMHWVRQAPGKGLEWVAQIKAKSNNYATYYAESVKGRFTISRDDSKNSLYLQMNSLKTEDTAVYYCRYVHYGAYYGVDAWGQGTTVTVSSASTKGPSVFPLAPSSKSTSGGTAALGCLVKDYFPEPVTVSWNSGALTSGVHTFPAVLQSSGLYSLSSVVTVPSSSLGTQTYICNVNHKPSNTKVDKKVEPKSCDKTHTCPPCPAPEAAGGPSVFLFPPKPKDTLMISRTPEVTCVVVDVSHEDPEVKFNWYVDGVEVHNAKTKPREEQYASTYRVVSVLTVLHQDWLNGKEYKCKVSNKALPAPIEKTISKAKGQPREPQVYTLPPSRCELTKNQVSLSCAVKGFYPSDIAVEWESNGQPENNYKTTPPVLDSDGSFFLVSKLTVDKSRWQQGNVFSCSVMHEALHNHYTQKSLSLSPDYKDDDDK
chain: EPKSSDKTHTCPPCPAPELLGGPSVFLFPPKPKDTLMISRTPEVTCVVVDVSHEDPEVKFNWYVDGVEVHNAKTKPREEQYNSTYRVVSVLTVLHQDWLNGKEYKCKVSNKALPAPIEKTISKAKGQPREPQVCTLPPSRDELTKNQVSLWCLVKGFYPSDIAVEWESNGQPENNYKTTPPVLDSDGSFFLYSKLTVDKSRWQQGNVFSCSVMHEALHNRYTQKSLSLSP
light: DIVMTQSPLSLPVTPGEPASISCRSSQSLVHSNRNTYMHWYQQKPGQAPRLLIYKVSNRFSGVPDRFSGSGSGTDFTLKISRVEAEDVGVYYCGQGTQVPYTFGQGTKLEIKRTVAAPSVFIFPPSDEQLKSGTASVVCLLNNFYPREAKVQWKVDNALQSGNSQESVTEQDSKDSTYSLSSTLTLSKADYEKHKVYACEVTHQGLSSPVTKSFNRGEC
notes: one-arm IgG1
B3: CE115HA000/GLS3000 L33P one-arm antibody (antibody, human IgG1, kappa, L234A L235A, N297A, name in Kabat numbering)
heavy: QVQLVESGGGVVQPGRSLRLSCAASGFTFSNAWMHWVRQAPGKGLEWVAQIKAKSNNYATYYAESVKGRFTISRDDSKNSLYLQMNSLKTEDTAVYYCRYVHYGAYYGVDAWGQGTTVTVSSASTKGPSVFPLAPSSKSTSGGTAALGCLVKDYFPEPVTVSWNSGALTSGVHTFPAVLQSSGLYSLSSVVTVPSSSLGTQTYICNVNHKPSNTKVDKKVEPKSCDKTHTCPPCPAPEAAGGPSVFLFPPKPKDTLMISRTPEVTCVVVDVSHEDPEVKFNWYVDGVEVHNAKTKPREEQYASTYRVVSVLTVLHQDWLNGKEYKCKVSNKALPAPIEKTISKAKGQPREPQVYTLPPSRCELTKNQVSLSCAVKGFYPSDIAVEWESNGQPENNYKTTPPVLDSDGSFFLVSKLTVDKSRWQQGNVFSCSVMHEALHNHYTQKSLSLSPDYKDDDDK
chain: EPKSSDKTHTCPPCPAPELLGGPSVFLFPPKPKDTLMISRTPEVTCVVVDVSHEDPEVKFNWYVDGVEVHNAKTKPREEQYNSTYRVVSVLTVLHQDWLNGKEYKCKVSNKALPAPIEKTISKAKGQPREPQVCTLPPSRDELTKNQVSLWCLVKGFYPSDIAVEWESNGQPENNYKTTPPVLDSDGSFFLYSKLTVDKSRWQQGNVFSCSVMHEALHNRYTQKSLSLSP
light: DIVMTQSPLSLPVTPGEPASISCRSSQSLVHSNRNTYPHWYQQKPGQAPRLLIYKVSNRFSGVPDRFSGSGSGTDFTLKISRVEAEDVGVYYCGQGTQVPYTFGQGTKLEIKRTVAAPSVFIFPPSDEQLKSGTASVVCLLNNFYPREAKVQWKVDNALQSGNSQESVTEQDSKDSTYSLSSTLTLSKADYEKHKVYACEVTHQGLSSPVTKSFNRGEC
notes: one-arm IgG1
B4: CE115HA000/GLS3000 L33I one-arm antibody (antibody, human IgG1, kappa, L234A L235A, N297A, name in Kabat numbering)
heavy: QVQLVESGGGVVQPGRSLRLSCAASGFTFSNAWMHWVRQAPGKGLEWVAQIKAKSNNYATYYAESVKGRFTISRDDSKNSLYLQMNSLKTEDTAVYYCRYVHYGAYYGVDAWGQGTTVTVSSASTKGPSVFPLAPSSKSTSGGTAALGCLVKDYFPEPVTVSWNSGALTSGVHTFPAVLQSSGLYSLSSVVTVPSSSLGTQTYICNVNHKPSNTKVDKKVEPKSCDKTHTCPPCPAPEAAGGPSVFLFPPKPKDTLMISRTPEVTCVVVDVSHEDPEVKFNWYVDGVEVHNAKTKPREEQYASTYRVVSVLTVLHQDWLNGKEYKCKVSNKALPAPIEKTISKAKGQPREPQVYTLPPSRCELTKNQVSLSCAVKGFYPSDIAVEWESNGQPENNYKTTPPVLDSDGSFFLVSKLTVDKSRWQQGNVFSCSVMHEALHNHYTQKSLSLSPDYKDDDDK
chain: EPKSSDKTHTCPPCPAPELLGGPSVFLFPPKPKDTLMISRTPEVTCVVVDVSHEDPEVKFNWYVDGVEVHNAKTKPREEQYNSTYRVVSVLTVLHQDWLNGKEYKCKVSNKALPAPIEKTISKAKGQPREPQVCTLPPSRDELTKNQVSLWCLVKGFYPSDIAVEWESNGQPENNYKTTPPVLDSDGSFFLYSKLTVDKSRWQQGNVFSCSVMHEALHNRYTQKSLSLSP
light: DIVMTQSPLSLPVTPGEPASISCRSSQSLVHSNRNTYIHWYQQKPGQAPRLLIYKVSNRFSGVPDRFSGSGSGTDFTLKISRVEAEDVGVYYCGQGTQVPYTFGQGTKLEIKRTVAAPSVFIFPPSDEQLKSGTASVVCLLNNFYPREAKVQWKVDNALQSGNSQESVTEQDSKDSTYSLSSTLTLSKADYEKHKVYACEVTHQGLSSPVTKSFNRGEC
notes: one-arm IgG1
B5: CE115HA000/GLS3000 L33E one-arm antibody (antibody, human IgG1, kappa, L234A L235A, N297A, name in Kabat numbering)
heavy: QVQLVESGGGVVQPGRSLRLSCAASGFTFSNAWMHWVRQAPGKGLEWVAQIKAKSNNYATYYAESVKGRFTISRDDSKNSLYLQMNSLKTEDTAVYYCRYVHYGAYYGVDAWGQGTTVTVSSASTKGPSVFPLAPSSKSTSGGTAALGCLVKDYFPEPVTVSWNSGALTSGVHTFPAVLQSSGLYSLSSVVTVPSSSLGTQTYICNVNHKPSNTKVDKKVEPKSCDKTHTCPPCPAPEAAGGPSVFLFPPKPKDTLMISRTPEVTCVVVDVSHEDPEVKFNWYVDGVEVHNAKTKPREEQYASTYRVVSVLTVLHQDWLNGKEYKCKVSNKALPAPIEKTISKAKGQPREPQVYTLPPSRCELTKNQVSLSCAVKGFYPSDIAVEWESNGQPENNYKTTPPVLDSDGSFFLVSKLTVDKSRWQQGNVFSCSVMHEALHNHYTQKSLSLSPDYKDDDDK
chain: EPKSSDKTHTCPPCPAPELLGGPSVFLFPPKPKDTLMISRTPEVTCVVVDVSHEDPEVKFNWYVDGVEVHNAKTKPREEQYNSTYRVVSVLTVLHQDWLNGKEYKCKVSNKALPAPIEKTISKAKGQPREPQVCTLPPSRDELTKNQVSLWCLVKGFYPSDIAVEWESNGQPENNYKTTPPVLDSDGSFFLYSKLTVDKSRWQQGNVFSCSVMHEALHNRYTQKSLSLSP
light: DIVMTQSPLSLPVTPGEPASISCRSSQSLVHSNRNTYEHWYQQKPGQAPRLLIYKVSNRFSGVPDRFSGSGSGTDFTLKISRVEAEDVGVYYCGQGTQVPYTFGQGTKLEIKRTVAAPSVFIFPPSDEQLKSGTASVVCLLNNFYPREAKVQWKVDNALQSGNSQESVTEQDSKDSTYSLSSTLTLSKADYEKHKVYACEVTHQGLSSPVTKSFNRGEC
notes: one-arm IgG1
B6: CE115HA000/GLS3000 L33F one-arm antibody (antibody, human IgG1, kappa, L234A L235A, N297A, name in Kabat numbering)
heavy: QVQLVESGGGVVQPGRSLRLSCAASGFTFSNAWMHWVRQAPGKGLEWVAQIKAKSNNYATYYAESVKGRFTISRDDSKNSLYLQMNSLKTEDTAVYYCRYVHYGAYYGVDAWGQGTTVTVSSASTKGPSVFPLAPSSKSTSGGTAALGCLVKDYFPEPVTVSWNSGALTSGVHTFPAVLQSSGLYSLSSVVTVPSSSLGTQTYICNVNHKPSNTKVDKKVEPKSCDKTHTCPPCPAPEAAGGPSVFLFPPKPKDTLMISRTPEVTCVVVDVSHEDPEVKFNWYVDGVEVHNAKTKPREEQYASTYRVVSVLTVLHQDWLNGKEYKCKVSNKALPAPIEKTISKAKGQPREPQVYTLPPSRCELTKNQVSLSCAVKGFYPSDIAVEWESNGQPENNYKTTPPVLDSDGSFFLVSKLTVDKSRWQQGNVFSCSVMHEALHNHYTQKSLSLSPDYKDDDDK
chain: EPKSSDKTHTCPPCPAPELLGGPSVFLFPPKPKDTLMISRTPEVTCVVVDVSHEDPEVKFNWYVDGVEVHNAKTKPREEQYNSTYRVVSVLTVLHQDWLNGKEYKCKVSNKALPAPIEKTISKAKGQPREPQVCTLPPSRDELTKNQVSLWCLVKGFYPSDIAVEWESNGQPENNYKTTPPVLDSDGSFFLYSKLTVDKSRWQQGNVFSCSVMHEALHNRYTQKSLSLSP
light: DIVMTQSPLSLPVTPGEPASISCRSSQSLVHSNRNTYFHWYQQKPGQAPRLLIYKVSNRFSGVPDRFSGSGSGTDFTLKISRVEAEDVGVYYCGQGTQVPYTFGQGTKLEIKRTVAAPSVFIFPPSDEQLKSGTASVVCLLNNFYPREAKVQWKVDNALQSGNSQESVTEQDSKDSTYSLSSTLTLSKADYEKHKVYACEVTHQGLSSPVTKSFNRGEC
notes: one-arm IgG1

The target in this assay is T1, CD3 epsilon homodimer protein (UniProt P07766 23-126).
T1 construct: also called CD3 (CD3 epsilon)
T1 sequence (P07766 23-126): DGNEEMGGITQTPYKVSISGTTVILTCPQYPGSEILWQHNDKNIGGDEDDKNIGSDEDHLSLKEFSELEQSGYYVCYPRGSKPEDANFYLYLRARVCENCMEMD
As to the kind of experiment: SPR (Biacore T200), CD3e homodimer on CM4 chip, antibody as analyte; KD ratio vs unaltered GLS3000.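 Note: CD3 epsilon homodimer amine-coupled to the sensor surface, antibodies injected as analyte at 25 °C with HBS-EP+ running buffer.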 In general terms: In SPR one partner is held on a chip, and binding of the other changes the refractive index at the surface.
Description: An appropriate amount of CD3 epsilon homodimer protein was immobilized onto Sensor chip CM4 (GE Healthcare Japan Corp.) by the amine coupling method. Then, the antibody having an appropriate concentration was injected thereto as an analyte and allowed to interact with the CD3 epsilon homodimer protein on the sensor chip. Then, the sensor chip was regenerated by the injection of 10 mmol/L glycine-HCl (pH 1.5). The assay was conducted at 25 degrees C., and HBS-EP+(GE Healthcare Japan Corp.) was used as a running buffer. […] Each parameter was calculated using Biacore T200 Evaluation Software (GE Healthcare Japan Corp.).
Specifically, when the amount of the GLS3000-containing antibody bound was defined as X and the amount of the L chain one-amino acid altered form bound was defined as Y, a value of Z (ratio of amounts bound)=Y/X was used.
B1: the “KD ratio to GLS3000” value was 37.5 ratio. In the case of B2, the “KD ratio to GLS3000” value turned out to be 0.9 ratio. As for B3, the figure is 32.7 ratio. Regarding B4, the “KD ratio to GLS3000” value came out at 0.86 ratio. As for B5, the figure is 0.83 ratio; as for B6, 0.65 ratio.
